Reference: US20240115721A1 (Memorial Sloan Kettering, published 2024)

How the values were obtained:
[1] = molecular target: T1, full-length cynomolgous DLL3 on transfected HEK293 cells (cynomolgous); test: flow cytometry, HEK293 cells transfected with full-length cynomolgous DLL3, mAb 10 µg/ml
T1 construct: whole, on cells; also called 293 cyno DLL3
Description: (§1) The four monoclonal antibodies (6-G23-F, 2-C8-A, 7-I1-B and 10-O18-A) were tested for their ability to bind to mouse and cynomolgous DLL3 as well as endogenous human DLL3 by flow cytometry. For this purpose, HEK293 cells were transfected with plasmid DNA encoding full-length human, mouse or cynomolgous DLL3 and used in the experiment. Briefly 106 transfected HEK293 cells or NCI-H82 primary cells were added in FACS buffer PBS 0.5% BSA to the wells of a 96 well U bottom plate and purified monoclonal added to 10 μg/ml. After 30 minutes incubation at 4° C. the cells were washed 3 times in FACS buffer and incubated with a PE labelled F(ab)2 anti-mouse IgG H and L 2nd stage. After another 30 minutes incubation at 4° C. the cells were washed three times in FACS buffer and analyzed on the flow cytometer. Data are presented at the ratio of the Mean Fluorescent Intensity for the monoclonal divided by the background staining with the 2nd stage. As shown in the Table below, all of the monoclonal antibodies cross reacted with cynomolgous DLL3 and detected endogenous DLL3 on NCI H82 cells but only 6-G23-F and 7-I1-B bound to mouse DLL3.

[2] = molecular target: T2, endogenous human DLL3 on NCI-H82 cells (human, UniProt Q9NYJ7 27-618); test: cell-based or functional assay
T2 sequence (looked up): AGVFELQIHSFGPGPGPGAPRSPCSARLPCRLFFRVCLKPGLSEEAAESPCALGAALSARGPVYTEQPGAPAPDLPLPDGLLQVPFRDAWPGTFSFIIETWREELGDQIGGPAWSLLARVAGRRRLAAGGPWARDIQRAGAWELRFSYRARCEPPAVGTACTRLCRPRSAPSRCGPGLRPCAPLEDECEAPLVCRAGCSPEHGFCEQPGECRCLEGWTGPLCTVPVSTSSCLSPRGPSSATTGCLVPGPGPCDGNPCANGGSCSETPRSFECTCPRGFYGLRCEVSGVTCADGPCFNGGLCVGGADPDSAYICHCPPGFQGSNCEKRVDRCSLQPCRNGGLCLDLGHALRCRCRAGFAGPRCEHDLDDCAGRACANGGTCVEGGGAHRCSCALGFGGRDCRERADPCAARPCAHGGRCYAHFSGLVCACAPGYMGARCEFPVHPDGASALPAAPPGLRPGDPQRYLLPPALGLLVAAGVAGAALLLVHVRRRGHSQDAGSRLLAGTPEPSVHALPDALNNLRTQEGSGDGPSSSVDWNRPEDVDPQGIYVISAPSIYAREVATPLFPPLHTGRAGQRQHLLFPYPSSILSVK

[3] = molecular target: T2, endogenous human DLL3 on NCI-H82 cells; test: flow cytometry, NCI-H82 cells (endogenous DLL3), mAb 10 µg/ml
Description: as §1

[4] = molecular target: T2, endogenous human DLL3 on NCI-H82 cells; test: cell-based or functional assay; remark: listed apart in the source
[5] = molecular target: T2, endogenous human DLL3 on NCI-H82 cells; test: cell-based or functional assay; remark: listed apart in the source
[6] = molecular target: T3, full-length mouse DLL3 on transfected HEK293 cells (mouse, UniProt O88516 33-584); test: flow cytometry, HEK293 cells transfected with full-length mouse DLL3, mAb 10 µg/ml
T3 construct: also called 293 mDLL3
T3 sequence: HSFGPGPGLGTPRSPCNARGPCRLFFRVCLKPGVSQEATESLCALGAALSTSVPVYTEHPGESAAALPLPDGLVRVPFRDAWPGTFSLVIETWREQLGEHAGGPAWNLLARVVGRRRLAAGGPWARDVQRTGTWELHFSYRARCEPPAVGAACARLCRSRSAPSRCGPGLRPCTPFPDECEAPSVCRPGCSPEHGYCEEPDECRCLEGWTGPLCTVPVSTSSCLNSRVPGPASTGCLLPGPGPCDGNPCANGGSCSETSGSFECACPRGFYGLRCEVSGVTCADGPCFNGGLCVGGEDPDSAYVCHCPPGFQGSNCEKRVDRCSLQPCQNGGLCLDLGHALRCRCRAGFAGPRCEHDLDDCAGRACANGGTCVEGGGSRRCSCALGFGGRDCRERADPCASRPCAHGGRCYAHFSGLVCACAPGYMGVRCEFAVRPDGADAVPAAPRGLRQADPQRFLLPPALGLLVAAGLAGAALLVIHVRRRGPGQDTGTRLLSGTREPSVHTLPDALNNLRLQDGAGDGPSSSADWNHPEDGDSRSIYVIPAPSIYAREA
Description: as §1

[7] = molecular target: T4, full-length human DLL3 on transfected HEK293 cells (human, UniProt Q9NYJ7 27-618); test: flow cytometry, HEK293 cells transfected with full-length human DLL3, mAb 10 µg/ml
T4 construct: also called 293 hDLL3
T4 sequence: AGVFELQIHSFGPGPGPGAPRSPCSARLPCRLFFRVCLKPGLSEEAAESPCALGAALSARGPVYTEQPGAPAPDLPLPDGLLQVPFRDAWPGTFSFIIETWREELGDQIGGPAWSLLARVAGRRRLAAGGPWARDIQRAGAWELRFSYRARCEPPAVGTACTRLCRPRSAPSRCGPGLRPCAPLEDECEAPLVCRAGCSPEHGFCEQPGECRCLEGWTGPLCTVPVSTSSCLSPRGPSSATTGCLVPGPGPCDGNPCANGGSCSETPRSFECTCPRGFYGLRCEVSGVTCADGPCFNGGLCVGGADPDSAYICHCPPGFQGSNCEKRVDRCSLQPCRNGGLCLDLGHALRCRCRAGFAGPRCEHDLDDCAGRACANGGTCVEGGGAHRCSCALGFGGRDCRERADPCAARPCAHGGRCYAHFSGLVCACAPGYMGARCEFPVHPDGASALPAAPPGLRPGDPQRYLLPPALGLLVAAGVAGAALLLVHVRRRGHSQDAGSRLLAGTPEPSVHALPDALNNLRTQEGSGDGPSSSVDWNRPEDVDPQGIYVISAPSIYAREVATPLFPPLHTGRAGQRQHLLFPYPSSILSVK
Description: as §1

B1: 2-C8-A (antibody, V domains shown)
VH: EVQLVESGGGLVQPGGSQRLSCAASGFTFSSYWMNWVRQAPGKGLEWVANIKEDGSEKYYVDSVKGRFTISRDNAKNSLYLQMNSLRAEDTAVYYCARDPGWAPFDYWGQGTLVTVSS
VL: DIQMSQSPSSLSASVGDRVTITCRASQGISNYLAWFQQKPGKAPKSLIYAASSLQSGVPSKFSGSGSGTDFTLAISSLQPEDFATYYCQQYNSFPYTFGQGTTLEIK
notes: Hybridoma monoclonal from Ablexis AlivaMAb Kappa mice; captured and detected with anti-mouse Fc / anti-mouse IgG reagents; It is not the recombinant human IgG1 form H2-C8-A; also called 2-C8-A (10 µg/ml)
B1 was tested, and the “ratio of Mean Fluorescent Intensity (monoclonal / background staining with 2nd stage)” value [1] was 15, the “MFI Ratio (4° C. plate / 37° C. plate), 4/37 internalization assay on NCI-H82 cells” value (from here on “MFI Ratio (4° C. plate / 37° C. plate)”) [2] was 1.76 and the “ratio of Mean Fluorescent Intensity (monoclonal / background staining with 2nd stage)” value [3] was 11.9. For the same binder, the “FAB ZAP % SC16 Max Killing, NCI-H82 cells” value (shortened to “FAB ZAP % SC16 Max Killing”) [4] was 89%, the “Dy light Dy658 Fluorescence (% of the Control Reference Monoclonal Antibody), quenching internalization assay on NCI-H82 cells” value [5] was 62.9% and the “ratio of Mean Fluorescent Intensity (monoclonal / background staining with 2nd stage)” value [6] was 1.5. The “ratio of Mean Fluorescent Intensity (monoclonal / background staining with 2nd stage)” value [7] was 7.71.

B2: 10-O18-A (antibody, V domains shown)
VH: QVQLQESGPGLVKPSETLSLTCTVSGGSINSYYWSWIRQPPGKGLEWIGYIFYSGITNYNPSLKSRVTISLDTSKNQFSLKLSSVTAADTAVYYCARIGVAGFYFDYWGQGTLVTVSS
VL: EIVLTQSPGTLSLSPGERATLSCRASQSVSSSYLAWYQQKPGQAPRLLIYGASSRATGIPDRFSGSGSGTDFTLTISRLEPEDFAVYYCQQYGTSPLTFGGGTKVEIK
notes: Hybridoma monoclonal from Ablexis AlivaMAb Kappa mice; captured and detected with anti-mouse Fc / anti-mouse IgG reagents; It is not the recombinant human IgG1 form H10-O18-A; also called 10-O18-A (10 µg/ml)
B2 was tested, and the “ratio of Mean Fluorescent Intensity (monoclonal / background staining with 2nd stage)” value [1] was 9.85, the “MFI Ratio (4° C. plate / 37° C. plate)” value [2] was 1.56 and the “ratio of Mean Fluorescent Intensity (monoclonal / background staining with 2nd stage)” value [3] was 9.4. The “ratio of Mean Fluorescent Intensity (monoclonal / background staining with 2nd stage)” value [6] was 0.99 and the “ratio of Mean Fluorescent Intensity (monoclonal / background staining with 2nd stage)” value [7] was 4.74.

B3: 7-I1-B (antibody, V domains shown)
VH: EVQLVESGGGLVKPGGSLRLSCAASGFTFSNTWMSWVRQAPGKGLEWVGRIKSKSDGGTTDYAAPVKGRFTISRDDSKNTLYLQMNSLKTEDTAVYYCTQYYWNSFDYWGQGTLVTVSS
VL: not shown
notes: Hybridoma monoclonal from Ablexis AlivaMAb Kappa mice; captured and detected with anti-mouse Fc / anti-mouse IgG reagents; also called 7-I1-B (10 µg/ml)
With B3 the “ratio of Mean Fluorescent Intensity (monoclonal / background staining with 2nd stage)” value [1] was 18.7, the “MFI Ratio (4° C. plate / 37° C. plate)” value [2] was 1.68 and the “ratio of Mean Fluorescent Intensity (monoclonal / background staining with 2nd stage)” value [3] was 19.2. For the same binder, the “FAB ZAP % SC16 Max Killing” value [4] was 97%, the “Dy light Dy658 Fluorescence (% of the Control Reference Monoclonal Antibody), quenching internalization assay on NCI-H82 cells” value [5] was 70.1% and the “ratio of Mean Fluorescent Intensity (monoclonal / background staining with 2nd stage)” value [6] was 4.7. For the same binder, the “ratio of Mean Fluorescent Intensity (monoclonal / background staining with 2nd stage)” value [7] was 9.74.

B4: 6-G23-F (antibody, V domains shown)
VH: QVQLVQSGAEVKKPGASVKVSCKASGYTFTSYYIHWVRQAPGQGLEWMGIIDPSDGSTNYAQKFQGRVTMTRDTSTSTVYMELSSLRSEDTAVYYCARDREYNYYGLDVWGQGTTVTVSS
VL: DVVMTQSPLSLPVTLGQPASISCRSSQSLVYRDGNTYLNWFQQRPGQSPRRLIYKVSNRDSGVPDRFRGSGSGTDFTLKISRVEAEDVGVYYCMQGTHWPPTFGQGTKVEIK
notes: Hybridoma monoclonal from Ablexis AlivaMAb Kappa mice (human immunoglobulin repertoire); the antibody was captured on anti-mouse Fc sensors and detected with anti-mouse IgG / anti-mouse IgG1 reagents; It is not the recombinant human IgG1 form H6-G23-F; also called 6-G23-F (10 µg/ml)
In the case of B4, the “ratio of Mean Fluorescent Intensity (monoclonal / background staining with 2nd stage)” value [1] is reported as 13.1, the “MFI Ratio (4° C. plate / 37° C. plate)” value [2] is reported as 1.67 and the “ratio of Mean Fluorescent Intensity (monoclonal / background staining with 2nd stage)” value [3] is reported as 11.1. The “FAB ZAP % SC16 Max Killing” value [4] was 94%, the “Dy light Dy658 Fluorescence (% of the Control Reference Monoclonal Antibody), quenching internalization assay on NCI-H82 cells” value [5] was 76.5% and the “ratio of Mean Fluorescent Intensity (monoclonal / background staining with 2nd stage)” value [6] was 3.97. For the same binder, the “ratio of Mean Fluorescent Intensity (monoclonal / background staining with 2nd stage)” value [7] was 6.33.
